Results: patent US20050238723A1, “Method of producing hydroxyalkyl starch derivatives” (priority 2002, published 2005)

Tested on: normocythaemic mouse
Assay: EPO-bioassay in the normocythaemic mouse system (European Pharmacopeia)
Type: in vivo
Method: Quantitative determination of EPO protein was performed by measuring UV absorption at 280 nm according to the Eur. Phar. (European Pharmacopeia 4, Monography January 2002: 1316: erythropoietin concentrated solution) in a cuvette with 1 cm path length. In addition, EPO was quantitated by applying a RP-HPLC method using a RP-C4 column (Vydac Protein C4, Cat.# 214TP5410, Grace Vydac, Calif., US); the HPLC method was calibrated using the erythropoietin BRP 1 reference standard (European Pharmacopeia, Conseil de l'Europe B.P. 907-F67029, Strasbourg Cedex 1).
The EPO-bioassay in the normocythaemic mouse system indicates was performed according to the procedures described in the European Pharmacopeia; the laboratory that carried out the EPO assay was using the International BRP EPO reference standard preparation. For the HES-modified EPO A2 preparation a mean value for the specific activity of 294,600 units per mg EPO of protein was determined indicating an approximately 3-fold higher specific activity when compared to the International BRP EPO reference standard preparation that was included in the samples sent for activity assays.
In vivo activity determinations are performed in normocythemic mice by measuring the increase of reticulocytes after 4 days after animals received the foreseen dose of EPO or modified EPO forms. Assays are performed using the BRP EPO standard which is calibrated against the WHO EPO standard in the polycythemic mouse assay. EPO samples are diluted in phosphate buffered saline containing 1 mg/ml of bovine serum albumin (Sigma).
0.5 ml of the EPO test solution in Dulbecco's buffered saline (corresponding to an EPO protein equivalent of a 100, 80, 40 or 20 IU/ml of the BRP standard EPO) are infected subcutaneously per animal. Blood samples are taken after 4 days after injection and reticulocytes are stained with acridine orange; quantitation of reticulocytes is performed by flow-cytometry by counting a total of 30,000 blood cells within 5 hours after the blood sample was taken (see Ph. Eur, 2000, Erythropoietini solutio concentrata, 1316, pages 780-785) and European Pharmacopoeia (1996/2000, attachment 2002).

[1] = sample diluted with 4 volume of PBS

| Substance | Calculated specific activity of EPO sample (basedon A280 nm and RP-HPLC determination) (sample as such) | Calculated specific activity of EPO sample (basedon A280 nm and RP-HPLC determination) [1] |
| --- | --- | --- |
| Control EPO K2: control incubation of unmodified EPO-GT-1 with unmodified HES; Q-Sepharose fraction eluted with high salt | 121,410 U/mg | 114,100 U/mg |
| BRP EPO standard: erythropoietin BRP reference standard of the European Pharmacopeia [reference compound] | 86,702 U/mg | 81,200 U/mg |
